Columns and labels:
purified protein [1] = substrate: OC[C@@H](O)[C@H](O)[C@H](O)[C@@H](O)CO; test: purified protein; assay type: biochemical, Sinorhizobium meliloti; settings: 1.5 mM NAD+, 20 mM CAPS pH 11
purified protein [2] = substrate: OC[C@@H](O)[C@@H](O)[C@H](O)[C@@H](O)CO; test: purified protein; assay type: biochemical, Sinorhizobium meliloti; settings: 1.5 mM NAD+, 20 mM CAPS pH 11

B1: SmoS (SmSmoS) (Sinorhizobium meliloti 1021) (protein)
chain: MKRLEGKSALITGSARGIGRAFAEAYVREGATVAIADIDIERARQAAAEIGPAAYAVQMDVTRQDSIDAAIAATVEHAGGLDILVNNAALFDLAPIVEITRESYEKLFAINVAGTLFTLQAAARQMIAQGRGGKIINMASQAGRRGEALVAIYCATKAAVISLTQSAGLDLIKHRINVNAIAPGVVDGEHWDGVDALFARYENRPRGEKKRLVGEAVPFGRMGTAEDLTGMAIFLASAESDYIVSQTYNVDGGNWMS
Km (purified protein [1]): 1.2 mM | kcat (purified protein [1]): 3227.1 s⁻¹ | Km (purified protein [2]): 2.5 mM | kcat (purified protein [2]): 25625.6 s⁻¹

Source: article doi:10.1101/689042v1
